This note sets out measurements from patent US20220119505A1.

The test has as its target Atto 488 labelled FaeG (Escherichia coli).

B1: F45::(GGGGS)3::F45 homodivalent protein construct (VHH)
chain: QVQLQESGGGLVQPGGSLRLSCLVSGGTFSWYAMGWFRQAPGKEREFVATVSRGGGSSYYADSVKGRFTISRDNAKNTVYLQMNSLKPEDTAVYYCAAGRGAPSDTGRPDEYDYWGQGTQVTVSSGGGGSGGGGSGGGGSQVQLQESGGGLVQPGGSLRLSCLVSGGTFSWYAMGWFRQAPGKEREFVATVSRGGGSSYYADSVKGRFTISRDNAKNTVYLQMNSLKPEDTAVYYCAAGRGAPSDTGRPDEYDYWGQGTQVTVSS
B1 returned a Hydrodynamic radius (nm) of 2.97 nm.

B2: F45 single-domain antibody (VHH)
VHH: QVQLQESGGGLVQPGGSLRLSCLVSGGTFSWYAMGWFRQAPGKEREFVATVSRGGGSSYYADSVKGRFTISRDNAKNTVYLQMNSLKPEDTAVYYCAAGRGAPSDTGRPDEYDYWGQGTQVTVSS
B2 displayed a Hydrodynamic radius (nm) of 3.02 nm.
